In patent publication US20190055279A1, “NOVEL POLYPEPTIDES WITH IMPROVED PROTEOLYTIC STABILITY, AND METHODS OF PREPARING AND USING SAME” (TUFTS UNIVERSITY, priority 2015, published 2019):

Key:
[1] = target: GLP-1 receptor
[2] = target: GLP-1 receptor; remark: listed apart in the source
[3] = target: GLP-2
[4] = target: GLP-1 (7-36) amide
[5] = target: Liraglutide
[6] = target: GLP-1 receptor; remark: listed apart in the source

Chain of N-acetyl-GLP-1 (peptide) (peptide): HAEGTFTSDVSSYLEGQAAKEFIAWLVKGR

Exenatide (peptide)
EC50 (pM), agonist potency, CRE-luciferase reporter [1]: 1.1 pM

N-acetyl-GLP-1 (peptide)
agonist potency, CRE-luciferase reporter [2]: 50 fold

dipeptidyl protease 4 (enzyme)
degradation by DPP4, read as potency loss on human GLP-2R [3]: > 97%
degradation by DPP4, read as potency loss in the GLP-1R agonist assay [4]: > 99.8%
degradation by DPP4, read as potency loss in the GLP-1R agonist assay [5]: > 98%

para-trifluoromethyldiazirine benzyl derivative of GLP-1 (peptide)
agonist potency and efficacy [6]: 123 fold
